Laboratory results taken from article PMC6076269, “Structure and nucleic acid binding properties of KOW domains 4 and 6–7 of human transcription elongation factor DSIF”.

Biological target: hSpt5 KOW4 (S522-G647) (Homo sapiens, UniProt O00267 522-647)
Experiment: fluorescence anisotropy; 50 nM nucleic acid; Fluorescence anisotropy: 25 mM Tris/HCl pH 7.0, 50 mM NaCl, 25 C (buffer printed for duplex annealing, named fluorescence buffer); NMR with Rpb4/7 (Fig 7): 50 mM Na phosphate pH 7.0, 50 mM NaCl, 1 mM DTT, 298 K
Details: protein: recombinant, tags: His6-GB1 removed by TEV
[1] = label: 5' 6-FAM on strand 1, blunt

Binder	Kd (label: 5' 6-FAM)	Kd [1]
GGCGGUAGCGUG (ssRNA) [ssRNA]	39.5 ± 7.4 µM	
dsDNA2 (dsDNA) DNA 1: GAAAATTGGGTAAG DNA 2: CTTACCCAATTTTC		41.2 ± 9 µM
dsDNA1 (dsDNA) DNA 1: CTTATTGAATTA DNA 2: TAATTCAATAAG		20.1 ± 0.4 µM
GAAAATTGGGTAAG (ssDNA) [ssDNA2]	24.5 ± 3.2 µM	
CTTATTGAATTA (ssDNA) [ssDNA1]	12.2 ± 0.6 µM	
